T1: Bovine, dephosphorylated, Myelin Basic Protein (MBP), P02687
T1 chain: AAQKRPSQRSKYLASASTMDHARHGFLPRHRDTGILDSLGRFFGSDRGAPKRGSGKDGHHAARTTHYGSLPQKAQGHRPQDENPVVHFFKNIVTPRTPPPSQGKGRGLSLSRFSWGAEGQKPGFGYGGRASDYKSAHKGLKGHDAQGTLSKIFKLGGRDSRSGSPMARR

B1: RPS6KA2(RSK3) (protein)
chain: MDLSMKKFAVRRFFSVYLRRKSRSKSSSLSRLEEEGVVKEIDISHHVKEGFEKADPSQFELLKVLGQGSYGKVFLVRKVKGSDAGQLYAMKVLKKATLKVRDRVRSKMERDILAEVNHPFIVKLHYAFQTEGKLYLILDFLRGGDLFTRLSKEVMFTEEDVKFYLAELALALDHLHSLGIIYRDLKPENILLDEEGHIKITDFGLSKEAIDHDKRAYSFCGTIEYMAPEVVNRRGHTQSADWWSFGVLMFEMLTGSLPFQGKDRKETMALILKAKLGMPQFLSGEAQSLLRALFKRNPCNRLGAGIDGVEEIKRHPFFVTIDWNTLYRKEIKPPFKPAVGRPEDTFHFDPEFTARTPTDSPGVPPSANAHHLFRGFSFVASSLIQEPSQQDLHKVPVHPIVQQLHGNNIHFTDGYEIKEDIGVGSYSVCKRCVHKATDTEYAVKIIDKSKRDPSEEIEILLRYGQHPNIITLKDVYDDGKFVYLVMELMRGGELLDRILRQRYFSEREASDVLCTITKTMDYLHSQGVVHRDLKPSNILYRDESGSPESIRVCDFGFAKQLRAGNGLLMTPCYTANFVAPEVLKRQGYDAACDIWSLGILLYTMLAGFTPFANGPDDTPEEILARIGSGKYALSGGNWDSISDAAKDVVSKMLHVDPHQRLTAMQVLKHPWVVNREYLSPNQLSRQDVHLVKGAMAATYFALNRTPQAPRLEPVLSSNLAQRRGMKRLTSTRL
B2: EPHB4 (protein)
chain: LCLRKQSNGREAEYSDKHGQYLIGHGTKVYIDPFTYEDPNEAVREFAKEIDVSYVKIEEVIGAGEFGEVCRGRLKAPGKKESCVAIKTLKGGYTERQRREFLSEASIMGQFEHPNIIRLEGVVTNSMPVMILTEFMENGALDSFLRLNDGQFTVIQLVGMLRGIASGMRYLAEMSYVHRDLAARNILVNSNLVCKVSDFGLSRFLEENSSDPTYTSSLGGKIPIRWTAPEAIAFRKFTSASDAWSYGIVMWEVMSFGERPYWDMSNQDVINAIEQDYRLPPPPDCPTSLHQLMLDCWQKDRNARPRFPQVVSALDKMIRNPASLKIVARENGGASHPLLDQRQPHYSAFGSVGEWLRAIKMGRYEESFAAAGFGSFELVSQISAEDLLRIGVTLAGHQKKILASVQHMKSQAKPGTPGGTGGPAPQY
B3: RPS6KA1(RSK1) (protein)
chain: MPLAQLKEPWPLMELVPLDPENGQTSGEEAGLQPSKDEGVLKEISITHHVKAGSEKADPSHFELLKVLGQGSFGKVFLVRKVTRPDSGHLYAMKVLKKATLKVRDRVRTKMERDILADVNHPFVVKLHYAFQTEGKLYLILDFLRGGDLFTRLSKEVMFTEEDVKFYLAELALGLDHLHSLGIIYRDLKPENILLDEEGHIKLTDFGLSKEAIDHEKKAYSFCGTVEYMAPEVVNRQGHSHSADWWSYGVLMFEMLTGSLPFQGKDRKETMTLILKAKLGMPQFLSTEAQSLLRALFKRNPANRLGSGPDGAEEIKRHVFYSTIDWNKLYRREIKPPFKPAVAQPDDTFYFDTEFTSRTPKDSPGIPPSAGAHQLFRGFSFVATGLMEDDGKPRAPQAPLHSVVQQLHGKNLVFSDGYVVKETIGVGSYSECKRCVHKATNMEYAVKVIDKSKRDPSEEIEILLRYGQHPNIITLKDVYDDGKHVYLVTELMRGGELLDKILRQKFFSEREASFVLHTIGKTVEYLHSQGVVHRDLKPSNILYVDESGNPECLRICDFGFAKQLRAENGLLMTPCYTANFVAPEVLKRQGYDEGCDIWSLGILLYTMLAGYTPFANGPSDTPEEILTRIGSGKFTLSGGNWNTVSETAKDLVSKMLHVDPHQRLTAKQVLQHPWVTQKDKLPQSQLSHQDLQLVKGAMAATYSALNSSKPTPQLKPIESSILAQRRVRKLPSTTL
B4: SRPK2 (protein)
chain: MSSRKVLAIQARKRRPKREKHPKKPEPQQKAPLVPPPPPPPPPPPPPLPDPTPPEPEEEILGSDDEEQEDPADYCKGGYHPVKIGDLFNGRYHVIRKLGWGHFSTVWLCWDMQGKRFVAMKVVKSAQHYTETALDEIKLLKCVRESDPSDPNKDMVVQLIDDFKISGMNGIHVCMVFEVLGHHLLKWIIKSNYQGLPVRCVKSIIRQVLQGLDYLHSKCKIIHTDIKPENILMCVDDAYVRRMAAEATEWQKAGAPPPSGSAVSTAPQQKPIGKISKNKKKKLKKKQKRQAELLEKRLQEIEELEREAERKIIEENITSAAPSNDQDGEYCPEVKLKTTGLEEAAEAETAKDNGEAEDQEEKEDAEKENIEKDEDDVDQELANIDPTWIESPKTNGHIENGPFSLEQQLDDEDDDEEDCPNPEEYNLDEPNAESDYTYSSSYEQFNGELPNGRHKIPESQFPEFSTSLFSGSLEPVACGSVLSEGSPLTEQEESSPSHDRSRTVSASSTGDLPKAKTRAADLLVNPLDPRNADKIRVKIADLGNACWVHKHFTEDIQTRQYRSIEVLIGAGYSTPADIWSTACMAFELATGDYLFEPHSGEDYSRDEDHIAHIIELLGSIPRHFALSGKYSREFFNRRGELRHITKLKPWSLFDVLVEKYGWPHEDAAQFTDFLIPMLEMVPEKRASAGECLRHPWLNS
B5: RPS6KB2(p70S6K2) (protein)
chain: MAAVFDLDLETEEGSEGEGEPELSPADACPLAELRAAGLEPVGHYEEVELTETSVNVGPERIGPHCFELLRVLGKGGYGKVFQVRKVQGTNLGKIYAMKVLRKAKIVRNAKDTAHTRAERNILESVKHPFIVELAYAFQTGGKLYLILECLSGGELFTHLEREGIFLEDTACFYLAEITLALGHLHSQGIIYRDLKPENIMLSSQGHIKLTDFGLCKESIHEGAVTHTFCGTIEYMAPEILVRSGHNRAVDWWSLGALMYDMLTGSPPFTAENRKKTMDKIIRGKLALPPYLTPDARDLVKKFLKRNPSQRIGGGPGDAADVQRHPFFRHMNWDDLLAWRVDPPFRPCLQSEEDVSQFDTRFTRQTPVDSPDDTALSESANQAFLGFTYVAPSVLDSIKEGFSFQPKLRSPRRLNSSPRAPVSPLKFSPFEGFRPSPSLPEPTELPLPPLLPPPPPSTTAPLPIRPPSGTKKSKRGRGRPGR
B6: RPS6KA4(MSK2) (protein)
chain: MGDEDDDESCAVELRITEANLTGHEEKVSVENFELLKVLGTGAYGKVFLVRKAGGHDAGKLYAMKVLRKAALVQRAKTQEHTRTERSVLELVRQAPFLVTLHYAFQTDAKLHLILDYVSGGEMFTHLYQRQYFKEAEVRVYGGEIVLALEHLHKLGIIYRDLKLENVLLDSEGHIVLTDFGLSKEFLTEEKERTFSFCGTIEYMAPEIIRSKTGHGKAVDWWSLGILLFELLTGASPFTLEGERNTQAEVSRRILKCSPPFPPRIGPVAQDLLQRLLCKDPKKRLGAGPQGAQEVRNHPFFQGLDWVALAARKIPAPFRPQIRSELDVGNFAEEFTRLEPVYSPPGSPPPGDPRIFQGYSFVAPSILFDHNNAVMTDGLEAPGAGDRPGRAAVARSAMMQDSPFFQQYELDLREPALGQGSFSVCRRCRQRQSGQEFAVKILSRRLEANTQREVAALRLCQSHPNVVNLHEVHHDQLHTYLVLELLRGGELLEHIRKKRHFSESEASQILRSLVSAVSFMHEEAGVVHRDLKPENILYADDTPGAPVKIIDFGFARLRPQSPGVPMQTPCFTLQYAAPELLAQQGYDESCDLWSLGVILYMMLSGQVPFQGASGQGGQSQAAEIMCKIREGRFSLDGEAWQGVSEEAKELVRGLLTVDPAKRLKLEGLRGSSWLQDGSARSSPPLRTPDVLESSGPAVRSGLNATFMAFNRGKREGFFLKSVENAPLAKRRKQKLRSATASRRGSPAPANPGRAPVASKGAPRRANGPLPPS
B7: SGK2 (protein)
chain: LPDHCYRMNSSPAGTPSPQPSRANGNINLGPSANPNAQPTDFDFLKVIGKGNYGKVLLAKRKSDGAFYAVKVLQKKSILKKKEQSHIMAERSVLLKNVRHPFLVGLRYSFQTPEKLYFVLDYVNGGELFFHLQRERRFLEPRARFYAAEVASAIGYLHSLNIIYRDLKPENILLDCQGHVVLTDFGLCKEGVEPEDTTSTFCGTPEYLAPEVLRKEPYDRAVDWWCLGAVLYEMLHGLPPFYSQDVSQMYENILHQPLQIPGGRTVAACDLLQSLLHKDQRQRLGSKADFLEIKNHVFFSPINWDDLYHKRLTPPFNPNVTGPADLKHFDPEFTQEAVSKSIGCTPDTVASSSGASSAFLGFDYAPEDDDILDC
B8: RPS6KB1(p70S6K) (protein)
chain: MRRRRRRDGFYPAPDFRDREAEDMAGVFDIDLDQPEDAGSEDELEEGGQLNESMDHGGVGPYELGMEHCEKFEISETSVNRGPEKIRPECFELLRVLGKGGYGKVFQVRKVTGANTGKIFAMKVLKKAMIVRNAKDTAHTKAERNILEEVKHPFIVDLIYAFQTGGKLYLILEYLSGGELFMQLEREGIFMEDTACFYLAEISMALGHLHQKGIIYRDLKPENIMLNHQGHVKLTDFGLCKESIHDGTVTHTFCGTIEYMAPEILMRSGHNRAVDWWSLGALMYDMLTGAPPFTGENRKKTIDKILKCKLNLPPYLTQEARDLLKKLLKRNAASRLGAGPGDAGEVQAHPFFRHINWEELLARKVEPPFKPLLQSEEDVSQFDSKFTRQTPVDSPDDSTLSESANQVFLGFEYVAPSVLES
B9: SLK (protein)
chain: MSFFNFRKIFKLGSEKKKKQYEHVKRDLNPEDFWEIIGELGDGAFGKVYKAQNKETSVLAAAKVIDTKSEEELEDYMVEIDILASCDHPNIVKLLDAFYYENNLWILIEFCAGGAVDAVMLELERPLTESQIQVVCKQTLDALNYLHDNKIIHRDLKAGNILFTLDGDIKLADFGVSAKNTRTIQRRDSFIGTPYWMAPEVVMCETSKDRPYDYKADVWSLGITLIEMAEIEPPHHELNPMRVLLKIAKSEPPTLAQPSRWSSNFKDFLKKCLEKNVDARWTTSQLLQHPFVTVDSNKPIRELIAEAKAEVTEEVEDGKEEDEEEETENSLPIPASKRASSDLSIASSEEDKLSQNACILESVSEKTERSNSEDKLNSKILNEKPTTDEPEKAVEDINEHITDAQLEAMTELHDRTAVIKENEREKRPKLENLPDTEDQETVDINSVSEGKENNIMITLETNIEHNLKSEEEKDQEKQQMFENKLIKSEEIKDTILQTVDLVSQETGEKEANIQAVDSEVGLTKEDTQEKLGEDDKTQKDVISNTSDVIGTCEAADVAQKVDEDSAEDTQSNDGKEVVEVGQKLINKPMVGPEAGGTKEVPIKEIVEMNEIEEGKNKEQAINSSENIMDINEEPGTTEGEEITESSSTEEMEVRSVVADTDQKALGSEVQDASKVTTQIDKEKKEIPVSIKKEPEVTVVSQPTEPQPVLIPSININSDSGENKEEIGSLSKTETILPPESENPKENDNDSGTGSTADTSSIDLNLSISSFLSKTKDSGSISLQETRRQKKTLKKTRKFIVDGVEVSVTTSKIVTDSDSKTEELRFLRRQELRELRFLQKEEQRAQQQLNSKLQQQREQIFRRFEQEMMSKKRQYDQEIENLEKQQKQTIERLEQEHTNRLRDEAKRIKGEQEKELSKFQNMLKNRKKEVINEVEKAPKELRKELMKRRKEELAQSQHAQEQEFVQKQQQELDGSLKKIIQQQKAELANIERECLNNKQQLMRAREAAIWELEERHLQEKHQLLKQQLKDQYFMQRHQLLKRHEKETEQMQRYNQRLIEELKNRQTQERARLPKIQRSEAKTRMAMFKKSLRINSTATPDQDRDKIKQFAAQEEKRQKNERMAQHQKHENQMRDLQLQCEANVRELHQLQNEKCHLLVEHETQKLKELDEEHSQELKEWREKLRPRKKTLEEEFARKLQEQEVFFKMTGESECLNPSTQSRISKFYPIPSLHSTGS

Target: T1, Bovine, dephosphorylated, Myelin Basic …
In the case of B1, the “MBP Kinase Activity” value is reported as “Negative”.
With B2 the “MBP Kinase Activity” value was “Strong”.
In the case of B3, the “MBP Kinase Activity” value is reported as “Strong”.
In the case of B4, the “MBP Kinase Activity” value is reported as “Strong”.
In the case of B5, the “MBP Kinase Activity” value is reported as “Negative”.
With B6 the “MBP Kinase Activity” value was “Weak”.
With B7 the “MBP Kinase Activity” value was “Weak”.
For B8, the “MBP Kinase Activity” value was “Negative”.
With B9 the “MBP Kinase Activity” value was “Weak”.
